Experimental data as given in patent publication US20070218064A1 (published 2007).

T1: recombinant human IL-23 (hrIL-23), produced at Centocor (human, UniProt P29460 23-328)
T1 sequence 1: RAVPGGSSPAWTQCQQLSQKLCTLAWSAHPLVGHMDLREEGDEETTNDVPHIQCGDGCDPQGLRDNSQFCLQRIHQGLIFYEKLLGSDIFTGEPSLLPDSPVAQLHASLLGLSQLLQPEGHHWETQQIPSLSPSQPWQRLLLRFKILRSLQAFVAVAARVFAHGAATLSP
T1 sequence 2: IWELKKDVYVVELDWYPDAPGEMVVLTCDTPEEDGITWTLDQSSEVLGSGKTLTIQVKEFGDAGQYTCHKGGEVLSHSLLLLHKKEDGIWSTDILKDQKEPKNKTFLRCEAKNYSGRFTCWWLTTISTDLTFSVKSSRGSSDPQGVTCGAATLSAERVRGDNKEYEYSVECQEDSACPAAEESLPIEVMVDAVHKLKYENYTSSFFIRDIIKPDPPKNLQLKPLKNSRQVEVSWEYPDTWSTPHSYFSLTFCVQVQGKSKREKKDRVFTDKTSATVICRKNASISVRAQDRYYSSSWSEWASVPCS


Molecular target: T1, recombinant human IL-23 (hrIL-23), …
Test: cell-based or functional assay

Binder	Inhibition of IL-17 production, IC50
mAb MOR05042 (antibody, IgG1, V domains shown) VH: QVELVQSGAEVKKPGESLKISCKGSGYSFSNYWIGWVRQMPGKGLEWMGIIPSTYSPSFQGQVTISADKSISTAYLQWSSLKASDTAMYYCARWYYKPFDVWGQGTLVTVSS VL: DIVLTQPPSVSGAPGQRVTISCTGSSSNIGSGYDVHWYQQLPGTAPKLLIYGNSKRPSGVPDRFSGSKSGTSASLAITGLQSEDEADYYCSSWTPSSVVFGGGTKLTVL	0.00127 mg/L
mAb MOR05045 (antibody, IgG1, V domains shown) VH: QVELVQSGAEVKKPGESLKISCKGSGYSFSNYWIGWVRQMPGKGLEWMGIIPSTYSPSFQGQVTISADKSISTAYLQWSSLKASDTAMYYCARWYYKPFDVWGQGTLVTVSS VL: DIVLTQPPSVSGAPGQRVTISCTGSSSNIGSGYDVHWYQQLPGTAPKLLIYGNSKRPSGVPDRFSGSKSGTSASLAITGLQSEDEADYYCSSWTPSSVVFGGGTKLTVL	0.0014 mg/L
mAb MOR05040 (antibody, IgG1, V domains shown) VH: QVELVQSGAEVKKPGSSVKVSCKASGGTFSSNYISWVRQAPGQGLEWMGAYAQKFQGRVTITADESTSTAYMELSSLRSEDTAVYYCARSKKGMYGGWTYPLMMFDLWGQGTLVTVSS VL: not shown	0.00264 mg/L
mAb MOR05058 (antibody, IgG1, V domains shown) VH: QVELVQSGAEVKKPGESLKISCKGSGYSFSNYWIGWVRQMPGKGLEWMGIIDPSNSYTNYSPSFQGQVTISADKSISTAYLQWSSLKASDTAMYYCARWYYKPFDVWGQGTLVTVSS VL: DIVLTQPPSVSGAPGQRVTISCTGSSSNIGSGYDVHWYQQLPGTAPKLLIYGNSKRPSGVPDRFSGSKSGTSASLAITGLQSEDEADYYCSSWTPVFGGGTKLTVL	0.00285 mg/L
mAb MOR05041 (antibody, IgG1, V domains shown) VH: QVELVQSGAEVKKPGESLKISCKGSGYSFSNYWIGWVRQMPGKGLEWMGIIPSTYSPSFQGQVTISADKSISTAYLQWSSLKASDTAMYYCARWYYKPFDVWGQGTLVTVSS VL: DIVLTQPPSVSGAPGQRVTISCTGSSSNIGSGYDVHWYQQLPGTAPKLLIYGNSKRPSGVPDRFSGSKSGTSASLAITGLQSEDEADYYCSSWTPSSVVFGGGTKLTVL	0.00301 mg/L
mAb MOR05054 (antibody, IgG1, V domains shown) VH: QVELVESGGGLVQPGGSLRLSCAASGFTFSSFGMSWVRQAPGKGLEWVSITYASVKGRFTISRDNSKNTLYLQMNSLRAEDTAVYYCARYWGTPYLMQFDNWGQGTLVTVSS VL: DIALTQPASVSGSPGQSITISCTGTSSDVGGYNSVSWYQQHPGKAPKLMIYSVSSRPSGVSNRFSGSKSGNTASLTISGLQAEDEADYYCSSYDTNKPLVVFGGGTKLTVL	0.00323 mg/L
mAb MOR05053 (antibody, IgG1, V domains shown) VH: QVELVESGGGLVQPGGSLRLSCAASGFTFSSFGMSWVRQAPGKGLEWVSNITYYASVKGRFTISRDNSKNTLYLQMNSLRAEDTAVYYCARYWGTPYLMQFDNWGQGTLVTVSS VL: DIALTQPASVSGSPGQSITISCTGTSSDVGGYNSVSWYQQHPGKAPKLMIYSVSSRPSGVSNRFSGSKSGNTASLTISGLQAEDEADYYCSSYDTNKPLVVFGGGTKLTVL	0.00493 mg/L
mAb MOR05059 (antibody, IgG1, V domains shown) VH: QVELVQSGAEVKKPGESLKISCKGSGYSFSNYWIGWVRQMPGKGLEWMGIIDPSNSYTNYSPSFQGQVTISADKSISTAYLQWSSLKASDTAMYYCARWYYKPFDVWGQGTLVTVSS VL: DIVLTQPPSVSGAPGQRVTISCTGSSSNIGSGYDVHWYQQLPGTAPKLLIYGNSKRPSGVPDRFSGSKSGTSASLAITGLQSEDEADYYCSWTSVVFGGGTKLTVL	0.0106 mg/L
mAb MOR05044 (antibody, IgG1, V domains shown) VH: QVELVQSGAEVKKPGESLKISCKGSGYSFSNYWIGWVRQMPGKGLEWMGIIPSSTYSPSFQGQVTISADKSISTAYLQWSSLKASDTAMYYCARWYYKPFDVWGQGTLVTVSS VL: DIVLTQPPSVSGAPGQRVTISCTGSSSNIGSGYDVHWYQQLPGTAPKLLIYGNSKRPSGVPDRFSGSKSGTSASLAITGLQSEDEADYYCSSWTPSSVVFGGGTKLTVL	0.0141 mg/L
mAb MOR05043 (antibody, IgG1, V domains shown) VH: QVELVQSGAEVKKPGESLKISCKGSGYSFSNYWIGWVRQMPGKGLEWMGIPSTYSPSFQGQVTISADKSISTAYLQWSSLKASDTAMYYCARWYYKPFDVWGQGTLVTVSS VL: DIVLTQPPSVSGAPGQRVTISCTGSSSNIGSGYDVHWYQQLPGTAPKLLIYGNSKRPSGVPDRFSGSKSGTSASLAITGLQSEDEADYYCSSWTPSSVVFGGGTKLTVL	0.0144 mg/L
mAb MOR05049 (antibody, IgG1, V domains shown) VH: QVELVESGGGLVQPGGSLRLSCAASGFTFSSFGMSWVRQAPGKGLEWVSITYASVKGRFTISRDNSKNTLYLQMNSLRAEDTAVYYCARYWGTPYLMQFDNWGQGTLVTVSS VL: DIALTQPASVSGSPGQSITISCTGTSSDVGGYNSVSWYQQHPGKAPKLMIYSVSSRPSGVSNRFSGSKSGNTASLTISGLQAEDEADYYCSSYDTNKPLVVFGGGTKLTVL	0.0162 mg/L
mAb MOR05048 (antibody, IgG1, V domains shown) VH: not shown VL: DIALTQPASVSGSPGQSITISCTGTSSDVGGYNSVSWYQQHPGKAPKLMIYSVSSRPSGVSNRFSGSKSGNTASLTISGLQAEDEADYYCSSYDTNKPLVVFGGGTKLTVL	0.0162 mg/L
mAb MOR05052 (antibody, IgG1, V domains shown) VH: QVELVESGGGLVQPGGSLRLSCAASGFTFSSFGMSWVRQAPGKGLEWVSITYASVKGRFTISRDNSKNTLYLQMNSLRAEDTAVYYCARYWGTPYLMQFDNWGQGTLVTVSS VL: DIALTQPASVSGSPGQSITISCTGTSSDVGGYNSVSWYQQHPGKAPKLMIYSVSSRPSGVSNRFSGSKSGNTASLTISGLQAEDEADYYCSSYDTNKPLVVFGGGTKLTVL	0.0178 mg/L
mAb MOR05047 (antibody, IgG1, V domains shown) VH: QVELVESGGGLVQPGGSLRLSCAASGFTFSSFGMSWVRQAPGKGLEWVSNIGTYASVKGRFTISRDNSKNTLYLQMNSLRAEDTAVYYCARYWGTPYLMQFDNWGQGTLVTVSS VL: DIALTQPASVSGSPGQSITISCTGTSSDVGGYNSVSWYQQHPGKAPKLMIYSVSSRPSGVSNRFSGSKSGNTASLTISGLQAEDEADYYCSSYDTNKPLVVFGGGTKLTVL	0.0234 mg/L
mAb MOR05050 (antibody, IgG1, V domains shown) VH: not shown VL: DIALTQPASVSGSPGQSITISCTGTSSDVGGYNSVSWYQQHPGKAPKLMIYSVSSRPSGVSNRFSGSKSGNTASLTISGLQAEDEADYYCSSYDTNKPLVVFGGGTKLTVL	0.0277 mg/L
mAb MOR05038 (antibody, IgG1, V domains shown) VH: QVELVQSGAEVKKPGSSVKVSCKASGGTFSSNYISWVRQAPGQGLEWMGIGYAQKFQGRVTITADESTSTAYMELSSLRSEDTAVYYCARSKKGMYGGWTYPLMMFDLWGQGTLVTVSS VL: not shown	0.0282 mg/L
mAb MOR05046 (antibody, IgG1, V domains shown) VH: QVELVQSGAEVKKPGESLKISCKGSGYSFSNYWIGWVRQMPGKGLEWMGIIDPSTYSPSFQGQVTISADKSISTAYLQWSSLKASDTAMYYCARWYYKPFDVWGQGTLVTVSS VL: DIVLTQPPSVSGAPGQRVTISCTGSSSNIGSGYDVHWYQQLPGTAPKLLIYGNSKRPSGVPDRFSGSKSGTSASLAITGLQSEDEADYYCSSWTPSSVVFGGGTKLTVL	0.0428 mg/L
mAb MOR05029 (antibody, IgG1, V domains shown) VH: QVELVQSGAEVKKPGSSVKVSCKASGGTFSSNYISWVRQAPGQGLEWMGGIIPIFGHANYAQKFQGRVTITADESTSTAYMELSSLRSEDTAVYYCARSKKGMYGGWTYPLMMFDLWGQGTLVTVSS VL: DIVLTQSPATLSLSPGERATLSCRASQSVSSNYLAWYQQKPGQAPRLLIYYASRRATGVPARFSGSGSGTDFTLTISSLEPEDFAYYCQQTFGQGTKVEIK	0.0491 mg/L
mAb MOR05030 (antibody, IgG1, V domains shown) VH: QVELVQSGAEVKKPGSSVKVSCKASGGTFSSNYISWVRQAPGQGLEWMGGIIPIFGHANYAQKFQGRVTITADESTSTAYMELSSLRSEDTAVYYCARSKKGMYGGWTYPLMMFDLWGQGTLVTVSS VL: DIVLTQSPATLSLSPGERATLSCRASQSVSSNYLAWYQQKPGQAPRLLIYYASRRATGVPARFSGSGSGTDFTLTISSLEPEDFAYYCQQPFTFGQGTKVEIK	0.0646 mg/L
mAb MOR05051 (antibody, IgG1, V domains shown) VH: QVELVESGGGLVQPGGSLRLSCAASGFTFSSFGMSWVRQAPGKGLEWVSITYASVKGRFTISRDNSKNTLYLQMNSLRAEDTAVYYCARYWGTPYLMQFDNWGQGTLVTVSS VL: DIALTQPASVSGSPGQSITISCTGTSSDVGGYNSVSWYQQHPGKAPKLMIYSVSSRPSGVSNRFSGSKSGNTASLTISGLQAEDEADYYCSSYDTNKPLVVFGGGTKLTVL	0.0663 mg/L
mAb MOR05055 (antibody, IgG1, V domains shown) VH: QVELVESGGGLVQPGGSLRLSCAASGFTFSSFGMSWVRQAPGKGLEWVSNIGTYASVKGRFTISRDNSKNTLYLQMNSLRAEDTAVYYCARYWGTPYLMQFDNWGQGTLVTVSS VL: DIALTQPASVSGSPGQSITISCTGTSSDVGGYNSVSWYQQHPGKAPKLMIYSVSSRPSGVSNRFSGSKSGNTASLTISGLQAEDEADYYCSSYDTNKPLVVFGGGTKLTVL	0.0916 mg/L
mAb MOR05056 (antibody, IgG1, V domains shown) VH: not shown VL: DIALTQPASVSGSPGQSITISCTGTSSDVGGYNSVSWYQQHPGKAPKLMIYSVSSRPSGVSNRFSGSKSGNTASLTISGLQAEDEADYYCSSYDTNKPLVVFGGGTKLTVL	0.092 mg/L
